From patent US20260125477A1 (BEIJING MABWORKS BIOTECH, published 2026)

T1: mouse B7-H3/CD276 protein, with His tag (mouse, UniProt Q8VE98 29-244, limits assumed)
T1 construct: Bought protein
T1 sequence (looked up): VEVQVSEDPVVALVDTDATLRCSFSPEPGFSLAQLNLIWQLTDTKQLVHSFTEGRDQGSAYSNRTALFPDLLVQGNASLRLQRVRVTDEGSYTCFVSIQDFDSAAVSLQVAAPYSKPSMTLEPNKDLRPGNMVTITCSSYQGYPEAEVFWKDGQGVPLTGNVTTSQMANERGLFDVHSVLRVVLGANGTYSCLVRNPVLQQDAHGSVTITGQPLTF

T2: human B7-H4 protein, with His tag (MALS verified) (human, UniProt Q7Z7D3 29-258, limits assumed)
T2 construct: Bought protein
T2 sequence (looked up): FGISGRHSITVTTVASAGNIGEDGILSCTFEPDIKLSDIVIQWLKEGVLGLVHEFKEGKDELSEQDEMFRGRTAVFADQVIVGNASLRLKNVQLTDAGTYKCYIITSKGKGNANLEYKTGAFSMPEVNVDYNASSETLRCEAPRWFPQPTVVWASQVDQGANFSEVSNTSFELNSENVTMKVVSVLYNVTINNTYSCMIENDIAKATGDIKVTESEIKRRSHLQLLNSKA

T3: human B7-H5/Gi24/VISTA protein, with His tag (MALS verified) (human, UniProt Q9H7M9 33-194)
T3 construct: Bought protein
T3 sequence (looked up): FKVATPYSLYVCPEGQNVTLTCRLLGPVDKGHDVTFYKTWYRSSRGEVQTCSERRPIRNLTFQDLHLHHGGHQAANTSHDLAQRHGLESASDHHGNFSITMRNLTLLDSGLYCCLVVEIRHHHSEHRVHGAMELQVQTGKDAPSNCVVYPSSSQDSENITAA

T4: human B7-H2/ICOSLG protein, with His tag (human, UniProt O75144 19-258, limits assumed)
T4 construct: Bought protein
T4 sequence (looked up): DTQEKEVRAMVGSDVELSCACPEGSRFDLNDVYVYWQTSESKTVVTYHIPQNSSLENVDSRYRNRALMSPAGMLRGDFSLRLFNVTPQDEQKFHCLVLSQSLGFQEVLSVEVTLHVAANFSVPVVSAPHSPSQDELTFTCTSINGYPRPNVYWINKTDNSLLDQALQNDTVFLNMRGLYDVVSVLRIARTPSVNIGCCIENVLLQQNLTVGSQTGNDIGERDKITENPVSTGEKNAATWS

T5: human PD-L2/B7-DC protein, with His tag (human, UniProt Q9BQ51 20-219, limits assumed)
T5 construct: Bought protein
T5 sequence (looked up): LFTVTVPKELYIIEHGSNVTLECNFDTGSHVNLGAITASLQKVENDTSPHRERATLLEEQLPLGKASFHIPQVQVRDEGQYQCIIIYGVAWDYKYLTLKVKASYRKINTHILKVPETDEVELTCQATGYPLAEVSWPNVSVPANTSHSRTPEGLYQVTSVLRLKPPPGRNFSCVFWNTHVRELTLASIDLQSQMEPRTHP

T6: human B7-2/CD86 protein, with His tag (human, UniProt P42081 26-247, limits assumed)
T6 construct: Bought protein
T6 sequence (looked up): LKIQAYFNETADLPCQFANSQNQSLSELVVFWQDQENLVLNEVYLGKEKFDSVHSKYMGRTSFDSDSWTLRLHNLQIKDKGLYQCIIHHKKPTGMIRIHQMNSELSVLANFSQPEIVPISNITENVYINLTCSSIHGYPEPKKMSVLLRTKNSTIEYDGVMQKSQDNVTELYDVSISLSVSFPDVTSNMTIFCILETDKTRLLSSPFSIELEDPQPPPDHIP

T7: human B7-H7/HHLA2 protein, with His tag (MALS verified) (human, UniProt Q9UM44 23-344, limits assumed)
T7 construct: Bought protein
T7 sequence (looked up): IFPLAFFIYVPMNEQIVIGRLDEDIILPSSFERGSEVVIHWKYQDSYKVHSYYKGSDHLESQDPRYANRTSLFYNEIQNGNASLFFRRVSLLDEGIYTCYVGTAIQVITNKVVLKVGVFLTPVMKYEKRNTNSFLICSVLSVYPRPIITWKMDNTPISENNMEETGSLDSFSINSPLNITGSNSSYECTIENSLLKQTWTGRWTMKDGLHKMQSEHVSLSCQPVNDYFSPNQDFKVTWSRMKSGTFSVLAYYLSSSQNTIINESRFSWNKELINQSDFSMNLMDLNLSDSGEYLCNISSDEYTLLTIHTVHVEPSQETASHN


Columns and labels:
[1] = biological target: T1, mouse B7-H3/CD276 protein, with His tag; experiment: SPR (Biacore T200), antibody captured on Protein A chip
Experimental: The fully human anti-human B7-H3 antibodies were tested for their binding affinity to human B7-H3 (4Ig), human B7-H3 (2Ig), monkey B7-H3 (monkey B7-H3/CD276 protein, with His tag, Cat #: B73-C52Ha, ACROBiosystems) and mouse B7-H3 protein (mouse B7-H3/CD276 protein, with His tag, Cat #: B73-M52H4, ACROBiosystems) by surface plasmon resonance (SPR) using Biacore T200 biosensor (Biacore, US) provided with a pre-fixed Protein A sensor chip. Briefly, the anti-human B7-H3 antibodies (1 μg/mL) were injected to the Biacore T200 biosensor at 10 μL/min for 20 sec, to achieve the desired protein density (100±30 RU).
The data as generated was analyzed using Biacore Insight V2.0.1 5.12933 with the one-to-one Langmuir binding model. The association rate (kₒₙ) and dissociation rate (koff) were obtained at the same time. The affinity was calculated as the quotient of the two kinetic rate constants (KD=koff/kₒₙ).

[2] = biological target: T2, human B7-H4 protein, with His tag (MALS …); experiment: as above
Experimental: (§1) The anti-human B7-H3 antibodies were tested for their binding capability to B7 family proteins by SPR using Biacore T200 biosensor (Biacore, US) provided with a pre-fixed Protein A sensor chip.
(§2) The dissociation was monitored for 600 sec. The data was analyzed using Biacore 8k evaluation software version 3.0, to obtain the binding responses, and the protein concentration-binding response curves were plotted, to determine the cross-reaction of the anti-human B7-H3 antibodies to the B7 family proteins.

[3] = biological target: T3, human B7-H5/Gi24/VISTA protein, with …; experiment: as above
Experimental: as §1, §2

[4] = biological target: T4, human B7-H2/ICOSLG protein, with His tag; experiment: as above
Experimental: as §1, §2

[5] = biological target: T5, human PD-L2/B7-DC protein, with His tag; experiment: as above
Experimental: as §1, §2

[6] = biological target: T6, human B7-2/CD86 protein, with His tag; experiment: as above
Experimental: as §1, §2

[7] = biological target: T6, human B7-2/CD86 protein, with His tag; experiment: SPR (Biacore T200), 6B5 captured on Protein A chip; response against concentration
Experimental: as §1, §2

[8] = biological target: T7, human B7-H7/HHLA2 protein, with His tag …; experiment: as above
Experimental: as §1, §2

[9] = biological target: T3, human B7-H5/Gi24/VISTA protein, with …; experiment: as above
Experimental: as §1, §2

Row | binding result [2] | binding result [3] | Binder | binding result [1] | other results
1 | – | – | Enoblituzumab (antibody, human IgG1, kappa, V domains shown, Humanized anti-B7-H3 antibody of MacroGenics with optimised Fc, used as the positive control; also called AbEno; enoblituzumab-IgG1-Mut) VH: EVQLVESGGGLVQPGGSLRLSCAASGFTFSSFGMHWVRQAPGKGLEWVAYISSDSSAIYYADTVKGRFTISRDNAKNSLYLQMNSLRDEDTAVYYCGRGRENIYYGSRLDYWGQGTTVTVSS VL: DIQLTQSPSFLSASVGDRVTITCKASQNVDTNVAWYQQKPGKAPKALIYSASYRYSGVPSRFSGSGSGTDFTLTISSLQPEDFATYYCQQYNNYPFTFGQGTKLEIKR | no binding (tested: 200 nM highest antigen concentration) | –
2 | no binding (tested: 200 nM) | no binding (tested: 200 nM) | 10D7 (antibody, human IgG1, kappa, V domains shown, also called 10D7-WT; Ab10D7) VH: QVQLVQSGPGLVKPSETLSLTCTVSGGSISRSSYYWGWIRQPPGKGLEWIGNIFYAGSTYYNPSLKSRVTISVDTSKNQFSLKLSSVTAADTAVYYCARRITGTTGWFDPWGQGTLVTVSS VL: DIQLTQSPSSLSASVGDRVTITCRASQGIRNDLGWYQQKPGKAPKLLIYAASTLQSGVPSRFSGSGSGTDFTLTISSLQPEDFATYYCLQDYNYPRTFGQGTKVEIKR | no binding (tested: 200 nM highest antigen concentration) | –
3 | no binding (tested: 200 nM) | no binding (tested: 200 nM) | 10F5 (antibody, human IgG1, kappa, V domains shown, also called Ab10F5) VH: QVQLVQSGAEVKKPGSSVKVSCKASGGTFSSQAISWVRQAPGQGLEWMGRIIPMLGIGDYAQSFQGRVTITADKSTSTAYLEVSSLGSEDTAVYYCAREGIAALGTNYYYGMDVWGQGTAVTVSS VL: EIVMTQSPSSVSASVGDRVTITCRASQGISRWLAWYQQKPGKAPKLLIYVASSLQSGVPSRFSGSGSGTDFTLTISSLQPEDFATYYCQQANSFPFTFGPGTKVDIRR | – | binding result [4]: no binding (tested: 200 nM); binding result [5]: no binding (tested: 200 nM); binding result [6]: no binding (tested: 200 nM)
4 | – | – | 6B5 (antibody, human IgG1, kappa, V domains shown, also called 6B5-WT; Ab6B5) VH: QVQLVESGPGLVKPSQTLSLTCTVSDGSISSGGYYWSWIRQHPGKGLEWIGYIYYSGGTYYSPSLKSRVTISVDTSKNQFSLKLTSVTAADTAVYYCARRAGYSSSFDSWGQGILVTVSS VL: EIVLTQSPLSLPVTPGEPASISCRSSQSLLYSNGYTYLDWYLQKPGQSPQFLIYLGFNRASGVPDRFSGSGSGTDFTLKISRVEAEDVGVYYCMQGLQTPYTFGQGTKLEIKR | – | binding result [7]: no binding (tested: 200 nM); binding result [8]: no binding (tested: 200 nM); binding result [9]: no binding (tested: 200 nM)
